{"source": "paper PMC3131678", "proteins": {"B1": {"name": "CYP2E1 (Sus scrofa) (protein)", "chain": "MTALGITVALLVWLVTLLLISIWKHIHSSWKLPPGPFPLPIVGNIFQLDLKNIPKSFTMLAERYGPVFTVYLGSRRIVVLHGYKAVKEVLLHYKNEFSGRGEIPTFQVHKDKGVIFNNGPTWRDTRRFSLTTLRDFGMGKQGNEQRIQREAHFLLEALRKTHGQPFDPTFLIGCAPCNVISDILFRQHFDYNDKTCLRLMSMFNENFYLLSTGWIQLYNNFSGYLRYLPGSHRKLMKNISEIKDYALERVKDHRDSLEPSCPRDFTDTLLMEMEKEKYSAEPIYTLDNIAVTVADMFFAGTETTSTTLRYGLLILMKYPEVEEKLHEEIDRVIGPNRIPAIKDRLVMPYLDAVVHEIQRFIDLIPSNLPHEATRDTDFRDYIIPKGTVVIPTLDSVLYDSQEFPEPEKFKPEHFLNENGKFKYSDHFKAFSAGKRVCVGEGLARMELFLFMAAILQHFNLKSLVDPKDIDLSPIAIGFAKIPPHYKLCVIPRSQV"}}, "substrate": "O=[N+]([O-])c1ccc(O)cc1", "test": "cells, lysate or membranes named", "details": "other: PNPH; CI 95% confidence interval; pH 7.4; 37.0 °C", "experimental": "Briefly, liver samples were homogenised in 10 mM Tris-HCl, 250 mM sucrose (pH7.4) and centrifuged for 10 minutes at 10.000×g. Afterwards, CaCl2 to a final concentration of 8 mM was added to the supernatant, and the samples were centrifuged at 25.000×g for 30 minutes. The protein concentrations of the microsomal fraction (pellet) were determined with a commercially available kit (Bio-Rad laboratories) according to the manufacturer's instructions and bovine serum albumin was used as standard. The prepared microsomes were diluted to a final protein concentration of 4 mg/ml and stored at –80°C before analysis. All procedures were done on ice.\nBriefly, microsomes were incubated together with the appropriate type of substrate and NADPH at 37°C. The resulting production of resorufin or p-nitrochetecol was measured by HPLC. For studying inhibition, steroids were additionally added to the microsomes. Inhibition studies were performed using a pool of microsomes from three male pigs. […] All steroids were dissolved in methanol. The final concentration of methanol was below 0.1% in the reaction volumes. The same amount of methanol was added to the blank incubations. For the kinetic studies, the activities were determined with substrate concentrations ranging from 0.1 to 4.0µM for EROD and MROD, and from 0.01 to 2mM for PNPH. Kinetic studies were performed under linear conditions. […]"}
{"protein": "B1", "values": [{"measurement": "Km", "result": "0.33 (0.214–0.452) µM"}]}
